Test results taken from the Human Domainome abundance scans (Beltran et al. 2025).

B1: Poly(rC)-binding protein 1, residues 278 to 350; numbered along this chain, Q15365 (parent)
chain: TQTTHELTIPNNLIGCIIGRQGANINEIRQMSGAQIKIANPVEGSSGRQVTITGSAASISLAQYLINARLSSE

Variants of: B1
Experiment: abundance fitness (aPCA) (normalised: wild type 0, dead -1); higher = more abundant; growth selection in yeast, the domain comes from the species named
Details: Homo sapiens

Abundance fitness, by site and new letter:
Q30: D -0.502, E 0.013, T 0.064, G -0.168, A 0.001, K 0.172, F -0.094, S 0.023, C -0.341, P -0.809, R 0.099, W -0.334, L -0.163, N 0.147, M -0.137
K37: M -0.065, S -0.11, E 0.01, T 0.051, W -0.215, F -0.41, P -0.718, A -0.109, D -0.034, G -0.255, V -0.032, L -0.142, I 0.124, C -0.4, Y 0.007, H -0.272, Q 0.083, N 0.032
A34: S -0.122, F -0.447, P -0.372, W -0.759, V -0.792, T 0.023, L -1.18, R -0.721, E -1.24, G -0.597, C -0.462, K -0.943, Q -0.641
I25: S -0.674, N -0.931, K -0.873, L -0.072, G -0.58, D -0.908, C -1.01, T -0.367, M -0.169, Q -0.564, H 0.296, A -0.565, F -0.539, P -0.84, V -0.308, W -0.622, R -0.803
I36: W -1.04, F -0.5, K -1.14, P -1.01, C -0.276, Y -0.767, E -0.986, D -0.852, A -0.97, Q -0.829, G -0.782, N -0.689, H 0.062, M -0.648, R -0.835, L -0.406
N26: Q 0.025, E -0.035, C -0.196, L -0.291, F -0.354, K 0.104, R 0.032, S -0.003, A -0.002, W -0.34, G -0.27, M -0.094, I -0.119, P -0.682, V -0.327, H -0.193, D -0.08, T -0.022
A39: Q -0.075, W -0.071, R -0.17, P -0.428, L -0.04, I -0.029, S 0.03, F -0.46, V -0.382, K -0.05, M -0.092, G 0.061, D 0.032, N 0.076, C -0.035
G33: Y -1.01, F -0.927, L -0.61, M -0.657, K -0.362, V -1.05, A -0.405, H -0.618, P -1.04, N -0.439, E -0.541, S -0.382, R -0.324, W -0.414, T -0.575, Q -0.204, I -0.296, C -0.652
Q35: H 0.138, C -0.15, S -0.012, D 0.001, T 0.017, M -0.09, G -0.13, I -0.104, W -0.21, P -0.641, Y -0.231, N 0.088, F -0.233, E -0.058, L -0.15, A -0.11, V -0.119, R 0.023
N24: A 0.007, P -0.088, Y 0.01, W -0.161, L -0.134, D -0.003, C -0.196, M 0.038, I -0.06, K 0.076, H -0.049, Q 0.002, S -0.033, R 0.066, E -0.01, G -0.04, F -0.13, V -0.048
Q21: Y -0.217
S32: M -0.703, D -0.965, V -0.858, L -0.703, K -0.8, I -0.882, R -0.85, F -1, T -0.16, W -1.14, Q -0.334, P -0.91, C -0.201, G -0.793, A -0.498
E27: R 0.005, H -0.09, P -0.704, A -0.18, V -0.26, F -0.564, K 0.021, N 0.08, T -0.102, I -0.164, M 0.014, Q 0.028, G -0.244, C -0.169, D -0.099, L -0.225, W -0.136, Y -0.157, S -0.035
P41: L -0.046, A 0.057, M 0.115, T -0.081, E -0.012, R 0.018, D -0.092, Q 0.049, C -0.09, S -0.061, I -0.196, G -0.11
A23: Q 0.05, D -0.079, W -0.419, L -0.22, Y -0.296, P -0.401, V -0.09, H 0.102, F 0.044, G -0.069, K 0.067, N -0.167, R 0.102, M -0.128, I -0.115, C 0.018, E 0.056
I38: T -0.403, S -0.814, Q -0.828, F -0.301, R -0.737, A -0.672, V -0.094, C -0.793, G -0.727, M -0.333, D -0.754, E -0.679, L -0.11, W -0.53, P -0.631, K -0.612
G22: C -0.113, L -0.408, R -0.271, K -0.329, T -0.373, Q -0.228, D -0.249, E 0.137, Y -0.383, H -0.122, M -0.205, P -0.583, S 0.01, N 0.089, I -1.04, V -0.703
I28: S -1.04, H -0.956, G -0.78, W -0.408, M -0.281, Y -0.731, A -0.735, V -0.257, D -0.524, Q -0.683, C -0.633, E -0.895, P -0.939, L -0.143, R -0.825, F -0.65
N40: M -0.052, S -0.012, L -0.17, K 0.02, E 0.004, P -0.002, W -0.512, F -0.373, I -0.553, V -0.266, A -0.023, Y -0.165, R 0.016, H -0.094, G 0.026, D 0.034, C -0.085, T -0.16, Q 0.086
R29: L -0.386, H -0.225, T -0.085, K -0.18, P -0.817, S -0.046, G -0.142, D -0.631, Q 0.067, W -1.06, E 0.062, A -0.059, C -0.205, N 0.037, F -0.271, M -0.022, V -0.129, Y -0.55, I -0.081
M31: Q 0.095, I -0.196, T -0.051, C 0.029, Y -0.056, D -0.337, W -0.325, L -0.009, F -0.109, E 0.019, N 0.203, P -0.894, G -0.347, R 0.088, V -0.126, A 0.038, K 0.162, S -0.171
